{"source": "paper PMC12802285", "about": "“PPE64 is a mycomembrane channel protein that functions in heme iron uptake and moonlights in biofilm formation in Mycobacterium tuberculosis” (mBio, 2025)", "proteins": {"B1": {"name": "PPE64 mycomembrane channel protein (recombinant, detergent-refolded) (natural protein)", "chain": "MAHFSVLPPEINSLRMYLGAGSAPMLQAAAAWDGLAAELGTAASSFSSVTTGLTGQAWQGPASAAMAAAAAPYAGFLTTASAQAQLAAGQAKAVASVFEAAKAAIVPPAAVAANREAFLALIRSNWLGLNAPWIAAVESLYEEYWAADVAAMTGYHAGASQAAAQLPLPAGLQQFLNTLPNLGIGNQGNANLGGGNTGSGNIGNGNKGSSNLGGGNIGNNNIGSGNRGSDNFGAGNVGTGNIGFGNQGPIDVNLLATPGQNNVGLGNIGNNNMGFGNTGDANTGGGNTGNGNIGGGNTGNNNFGFGNTGNNNIGIGLTGNNQMGINLAGLLNSGSGNIGIGNSGTNNIGLFNSGSGNIGVFNTGANTLVPGDLNNLGVGNSGNANIGFGNAGVLNTGFGNASILNTGLGNAGELNTGFGNAGFVNTGFDNSGNVNTGNGNSGNINTGSWNAGNVNTGFGIITDSGLTNSGFGNTGTDVSGFFNTPTGPLAVDVSGFFNTASGGTVINGQTSGIGNIGVPGTLFGSVRSGLNTGLFNMGTAISGLFNLRQLLG", "notes": "also called PPE64_(OPOE); PPE64DDM"}}, "biological_target": "the molecule itself", "assay": "native gel or EMSA", "note": "Several values for one entry are separate records, joined by “and”; a condition that tells them apart may be missing. Identical values can stand only once."}
{"protein": "B1", "values": [{"measurement": "stoichiometry N", "value": "9 and 3"}]}
